Patent publication US20190062417A1 (SHANGHAI JW INFLINHIX, published 2019)

Target: T1, TNF receptors on the surface of L929 cells (mouse (L929 cells), UniProt P25118 30-454)
T1 construct: whole, on cells; the Methods stain with anti-TNFR1; also called cell surface receptors; TNF cell membrane surface receptors
T1 sequence (looked up): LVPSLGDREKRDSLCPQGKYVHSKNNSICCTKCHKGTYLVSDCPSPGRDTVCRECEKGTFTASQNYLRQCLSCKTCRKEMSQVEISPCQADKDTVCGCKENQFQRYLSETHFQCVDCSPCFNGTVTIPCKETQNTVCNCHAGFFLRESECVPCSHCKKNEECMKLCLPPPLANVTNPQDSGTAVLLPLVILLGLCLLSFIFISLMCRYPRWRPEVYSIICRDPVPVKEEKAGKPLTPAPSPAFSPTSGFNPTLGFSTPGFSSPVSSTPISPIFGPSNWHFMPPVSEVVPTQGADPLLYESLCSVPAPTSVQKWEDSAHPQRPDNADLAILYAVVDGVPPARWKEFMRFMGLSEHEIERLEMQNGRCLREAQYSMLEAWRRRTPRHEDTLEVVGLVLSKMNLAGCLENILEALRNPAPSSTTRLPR
Experiment: confocal microscopy on L929 cells, 244-12 alone
Procedure: The cells were fixed with 4% paraformaldehyde (in PBS) for 10 min, blocked in a phosphate-buffer containing 0.5% BSA and 0.1% cold water fish-gelatin for 15min and subsequently incubated with rabbit anti-TNFR1 antibodies (Abcam) for 1 hour. […] PBS-washed specimens were then mounted in Gelvatol/DABCO (Sigma-Aldrich). DNA was counterstained with DAPI (Sigma-Aldrich). All samples were analyzed by fluorescent microscopy using a Nikon Eclipse 80i at 60×. Images were acquired with MS-Elements AR3.0 software using a Hamamatsu camera.

B1: monoclonal antibody 244-12 (antibody, mouse IgG2b, kappa, V domains shown)
VH: QIQLVQSGPELKKPGETVKISCKASGYTFTNYGMNWVKQAPGKGLKWMGWINTYTGEPTYADDFKGRFAFSLETSANTAYLQINNLRNEGMATYFCARHYRYAWFPYWGQGTLVTVSA
VL: DIQMTQSPASLSASVGETVTITCRASGNIHIYLAWYQQKQGKSPQLLVYNAKTLADGVPSRFSGSGSGTQYSLKINSLQPEDFGSYYCQHFWSIPWTFGGGTKLEIKR
notes: also called antibody of the present invention
  binding result: no binding
